No end group written: not given here. *: point of attachment. BODIPYFLEthylmaleimide = Cc1cc(C)n2c1C=C1C=CC(CCC(=O)NCCN3C(=O)CC(*)C3=O)=[N+]1[B-]2(F)F
What was measured:
[1] = molecular target: Bodipy-FL Mps1(137–171) (S. cerevisiae); assay: fluorescence polarisation; direct titration: 2-fold serial dilutions of Ndc80c^dwarf (from 860 uM stock) added to 20 nM (final) Bodipy-FL peptide; 20 mM Hepes pH 7.2, 150 mM NaCl, 2 mM TCEP; 25 °C; triplicate
[2] = system: Ndc80c^dwarf; assay: Fluorescence polarization competition, reporter Bodipy-FL Mps1(137–171); format: binding, S. cerevisiae; settings: direct titration (Figure 3A) and competition with Bodipy-FL Mps1(137–171) (Figure 3B)
Source text: We measured by fluorescence polarization the affinity of Ndc80^dwarf, a shortened version of Ndc80c[51], for a peptide comprising Mps1 residues 137–171, plus a C-terminal cysteine for labeling. We labeled the peptide with the Bodipy fluorophore and determined fluorescence anisotropy as a function of Ndc80c^dwarf concentration (Figure 3A). We then used unlabeled wild-type and mutant peptides in a competition format, at a fixed Ndc80c^dwarf concentration (Figures 3B,C). The mutant peptides corresponded to mutations characterized in one of the accompanying papers. […] Mutating either the basic residues or the hydrophobic residues in the first part of the consensus motif or the conserved arginine at the end of the second part lowered affinity (raised the Ki) by roughly two logs; mutating both the final arginine and the hydrophobic residues eliminated any detectable competition.
Figure 3. Fluorescence polarization measurements of Ndc80c^dwarf binding peptides from the N-terminal extensions of Mps1 and Ipl1. (A) Polarization of fluorescence from 20 nM Bodipy-FL Mps1(137–171) (Mps1 residues 137–171 plus a C-terminal cysteine modified with Bodipy-FL -- see Methods) and Bodipy-FL Ipl1 (26–39;45–59) as a function of Ndc80c^dwarf concentration. (B) Competition binding experiment: unlabeled competitor peptides (see figure annotation) were added in twofold serial dilutions to Bodipy-FL Mps1(137–171) and Ndc80c^dwarf at final concentrations of 20 nM and 500 nM respectively. Loss of polarization indicates displacement of bound Bodipy-FL Mps1(137–171) by the competitor. (C) As in (B), with competitor Mps1(137–171) peptides containing mutations that reduce affinity for Ndc80c[40]. (D) Polarization of fluorescence from 20 nM Bodipy-FL Mps1(137–171) as a function of the concentration of Ndc80c^dwarf bearing mutations in Nuf2 that interfere with its Mps1 interaction in cells. (E) As in (B), but with 20 nM Bodipy-FL Ipl1 (26–39;45–59) as the fluorescent reporter and 27μM Ndc80c^dwarf. […] For the Ipl1 peptide, the second copy of the motif, not used for the fluorescence polarization experiments, is shown in the bottom line.
Mps1 (137–171), Ipl1 (26–39;45–59), and Dam1 (254–270;290–305) peptides with added C-terminal cysteines, were synthesized by the Tufts University Core Facility. […] Fluorescence polarization was measured at 25°C with an Envision plate reader (Perkin Elmer) equipped with a filter set optimized for fluorescence polarization of FITC, which has the same absorption and emission spectra as those of Bodipy FL. […] Fluorescence polarization was measured in triplicate. […] An equal volume of a buffer-matched solution containing 40 nM Bodipy-FL labelled peptide and 1 μM Ndc80c^dwarf was added to each of the dilutions, and fluorescence polarization was measured in triplicate. […]

[3] = molecular target: T1, Ndc80c^dwarf, P40460;Q04477;P40014; assay: fluorescence polarization competition; settings: chain shown with the change; point at the highest competitor concentration (about 1e3 µM); 20 nM Bodipy-FL Mps1(137–171), 500 nM Ndc80c^dwarf; lower polarization = more displacement of the …; parent: est. 41; read off a plot
T1 chain 1: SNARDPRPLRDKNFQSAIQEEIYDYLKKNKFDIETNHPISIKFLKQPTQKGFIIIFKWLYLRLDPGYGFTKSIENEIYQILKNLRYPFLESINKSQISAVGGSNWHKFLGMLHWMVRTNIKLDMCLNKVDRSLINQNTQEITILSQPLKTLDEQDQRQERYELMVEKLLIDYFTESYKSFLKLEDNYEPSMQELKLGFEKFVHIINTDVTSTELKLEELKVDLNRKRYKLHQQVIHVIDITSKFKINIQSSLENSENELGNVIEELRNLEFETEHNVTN
T1 chain 2: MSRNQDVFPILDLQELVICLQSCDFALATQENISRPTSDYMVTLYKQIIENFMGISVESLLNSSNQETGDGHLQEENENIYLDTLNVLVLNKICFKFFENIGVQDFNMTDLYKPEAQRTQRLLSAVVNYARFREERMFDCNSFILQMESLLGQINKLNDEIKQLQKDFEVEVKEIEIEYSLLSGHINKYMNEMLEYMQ
T1 chain 3: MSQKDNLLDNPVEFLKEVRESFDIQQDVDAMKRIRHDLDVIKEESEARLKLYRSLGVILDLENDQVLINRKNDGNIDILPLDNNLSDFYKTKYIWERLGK
T1 chain 4: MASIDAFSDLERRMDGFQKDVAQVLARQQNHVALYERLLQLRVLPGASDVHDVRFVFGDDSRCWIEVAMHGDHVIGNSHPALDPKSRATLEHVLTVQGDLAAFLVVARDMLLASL

[4] = molecular target: T2, Bodipy-FL Mps1(137–171); assay: fluorescence polarization; settings: chain shown with the change; 20 nM Bodipy-FL Mps1(137–171); Ndc80c^dwarf mutant titrated
T2 chain: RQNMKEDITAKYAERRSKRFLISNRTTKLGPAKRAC

[5] = molecular target: T3, Ndc80c^dwarf (S. cerevisiae, UniProt P40460 1-691; Q04477 1-213; P40014 1-221); assay: fluorescence polarisation; competition: 2-fold serial dilutions of unlabeled peptide (2 mM stock) mixed with an equal volume giving 20 nM Bodipy-FL Mps1(137–171) and 500 nM Ndc80c^dwarf; 20 mM Tris pH 7.2, 100 mM NaCl, 2 mM TCEP; 25 °C; triplicate
T3 chain 1: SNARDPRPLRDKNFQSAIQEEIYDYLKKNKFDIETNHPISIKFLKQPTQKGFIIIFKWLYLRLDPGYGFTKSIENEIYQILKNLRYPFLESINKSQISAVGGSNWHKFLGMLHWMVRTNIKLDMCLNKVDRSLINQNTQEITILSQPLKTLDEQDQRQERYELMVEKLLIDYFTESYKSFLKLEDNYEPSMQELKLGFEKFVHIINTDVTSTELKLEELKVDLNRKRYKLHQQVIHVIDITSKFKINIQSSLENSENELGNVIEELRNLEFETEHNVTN
T3 chain 2: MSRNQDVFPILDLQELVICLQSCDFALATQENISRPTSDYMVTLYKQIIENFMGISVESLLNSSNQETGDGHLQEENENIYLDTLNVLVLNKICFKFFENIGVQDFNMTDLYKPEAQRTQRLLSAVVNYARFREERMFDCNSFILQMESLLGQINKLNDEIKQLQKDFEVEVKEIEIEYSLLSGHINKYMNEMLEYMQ
T3 chain 3: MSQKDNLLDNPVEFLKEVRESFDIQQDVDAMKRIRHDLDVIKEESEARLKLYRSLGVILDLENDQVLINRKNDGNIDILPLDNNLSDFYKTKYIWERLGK
T3 chain 4: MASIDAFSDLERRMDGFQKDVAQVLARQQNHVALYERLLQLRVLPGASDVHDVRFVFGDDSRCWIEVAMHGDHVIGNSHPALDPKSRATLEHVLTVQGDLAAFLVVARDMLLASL

[6] = molecular target: T3, Ndc80c^dwarf; assay: FP
[7] = molecular target: T4, Ipl1 (Saccharomyces cerevisiae (strain ATCC …, UniProt P38991)); assay: FP direct, Bodipy peptide, Ndc80c dwarf
T4 chain: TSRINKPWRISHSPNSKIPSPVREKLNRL

[8] = molecular target: T5, Mps1 (Saccharomyces cerevisiae (strain ATCC …, UniProt P54199)); assay: FP direct, Bodipy peptide, Ndc80c dwarf
T5 chain: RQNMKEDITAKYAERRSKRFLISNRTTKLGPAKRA

## Ndc80c^dwarf bearing the Nuf2 F8A P9A mutations (from UniProt P40460 1-691; Q04477 1-213; P40014 1-221) (complex)
[1]
  loss of affinity against wild-type Ndc80c^dwarf (logs): 2 logs

## Ndc80c^dwarf bearing the Nuf2 N128A mutation (from UniProt P40460 1-691; Q04477 1-213; P40014 1-221) (complex)
[1]
  loss of affinity against wild-type Ndc80c^dwarf (logs): 2 logs

## RRKSILHTIRNSIASGARISLGSGAARVVNGPVTC [Dam1 (254–270;290–305)]
[2]
  relative affinity of peptides for Ndc80c^dwarf (comparison in words): nearly the same

## TSRINKPWRISHSPNSKIPSPVREKLNRLC [Ipl1 (26–39;45–59)]
[2]
  relative affinity of peptides for Ndc80c^dwarf (comparison in words): bound more weakly than those from Dam1 and Mps1

## RQNMKEDITAKYAERRSKRDAISNRTTKLGPAKSAC [Mps1 (137–171) peptide, unlabeled F156D; L157A; R170S]
[3]
  response: 76 mP

B1: Ndc80c^dwarf, P40460;Q04477;P40014 Nuf2:N128A (protein)
chain 1: SNARDPRPLRDKNFQSAIQEEIYDYLKKNKFDIETNHPISIKFLKQPTQKGFIIIFKWLYLRLDPGYGFTKSIENEIYQILKNLRYPFLESINKSQISAVGGSNWHKFLGMLHWMVRTNIKLDMCLNKVDRSLINQNTQEITILSQPLKTLDEQDQRQERYELMVEKLLIDYFTESYKSFLKLEDNYEPSMQELKLGFEKFVHIINTDVTSTELKLEELKVDLNRKRYKLHQQVIHVIDITSKFKINIQSSLENSENELGNVIEELRNLEFETEHNVTN
chain 2: MSRNQDVFPILDLQELVICLQSCDFALATQENISRPTSDYMVTLYKQIIENFMGISVESLLNSSNQETGDGHLQEENENIYLDTLNVLVLNKICFKFFENIGVQDFNMTDLYKPEAQRTQRLLSAVVAYARFREERMFDCNSFILQMESLLGQINKLNDEIKQLQKDFEVEVKEIEIEYSLLSGHINKYMNEMLEYMQ
chain 3: MSQKDNLLDNPVEFLKEVRESFDIQQDVDAMKRIRHDLDVIKEESEARLKLYRSLGVILDLENDQVLINRKNDGNIDILPLDNNLSDFYKTKYIWERLGK
chain 4: MASIDAFSDLERRMDGFQKDVAQVLARQQNHVALYERLLQLRVLPGASDVHDVRFVFGDDSRCWIEVAMHGDHVIGNSHPALDPKSRATLEHVLTVQGDLAAFLVVARDMLLASL
[4]
  Kd: 7.4 µM

B2: Ndc80c^dwarf, P40460;Q04477;P40014 Nuf2:F8A; Nuf2:P9A (protein)
chain 1: SNARDPRPLRDKNFQSAIQEEIYDYLKKNKFDIETNHPISIKFLKQPTQKGFIIIFKWLYLRLDPGYGFTKSIENEIYQILKNLRYPFLESINKSQISAVGGSNWHKFLGMLHWMVRTNIKLDMCLNKVDRSLINQNTQEITILSQPLKTLDEQDQRQERYELMVEKLLIDYFTESYKSFLKLEDNYEPSMQELKLGFEKFVHIINTDVTSTELKLEELKVDLNRKRYKLHQQVIHVIDITSKFKINIQSSLENSENELGNVIEELRNLEFETEHNVTN
chain 2: MSRNQDVAAILDLQELVICLQSCDFALATQENISRPTSDYMVTLYKQIIENFMGISVESLLNSSNQETGDGHLQEENENIYLDTLNVLVLNKICFKFFENIGVQDFNMTDLYKPEAQRTQRLLSAVVNYARFREERMFDCNSFILQMESLLGQINKLNDEIKQLQKDFEVEVKEIEIEYSLLSGHINKYMNEMLEYMQ
chain 3: MSQKDNLLDNPVEFLKEVRESFDIQQDVDAMKRIRHDLDVIKEESEARLKLYRSLGVILDLENDQVLINRKNDGNIDILPLDNNLSDFYKTKYIWERLGK
chain 4: MASIDAFSDLERRMDGFQKDVAQVLARQQNHVALYERLLQLRVLPGASDVHDVRFVFGDDSRCWIEVAMHGDHVIGNSHPALDPKSRATLEHVLTVQGDLAAFLVVARDMLLASL
[4]
  Kd: 12.5 µM

## RQNMKEDITAKYAEDDSKDFLISNRTTKLGPAKRAC [Mps1 R151D R152D R155D peptide (137–171)]
[5]
  rise of Ki against the wild-type Mps1 peptide (logs): 2 logs

## RQNMKEDITAKYAERRSKRDAISNRTTKLGPAKRAC [Mps1 F156D L157A peptide (137–171)]
[5]
  rise of Ki against the wild-type Mps1 peptide (logs): 2 logs

## RQNMKEDITAKYAERRSKRFLISNRTTKLGPAKSAC [Mps1 R170S peptide (137–171)]
[5]
  rise of Ki against the wild-type Mps1 peptide (logs): 2 logs

## RQNMKEDITAKYAERRSKRFLISNRTTKLGPAKRAC(BODIPYFLEthylmaleimide) [Bodipy-FL Mps1(137–171)]
[6]
  Kd: 0.28 µM

B3: Ndc80-Nuf2 (protein)
chain 1: MSRNQDVFPILDLQELVICLQSCDFALATQENISRPTSDYMVTLYKQIIENFMGISVESLLNSSNQETGDGHLQEENENIYLDTLNVLVLNKICFKFFENIGVQDFNMTDLYKPEAQRTQRLLSAVVNYARFREERMFDCNSFILQMESLLGQ
chain 2: RDPRPLRDKNFQSAIQEEIYDYLKKNKFDIETNHPISIKFLKQPTQKGFIIIFKWLYLRLDPGYGFTKSIENEIYQILKNLRYPFLESINKSQISAVGGSNWHKFLGMLHWMVRTNIKLDMCLNKVDRSLINQNTQEITILSQPLKTLDEQDQRQERYELMVEKLLIDYFTESYKSFLKLEDNYEPSMQELKLGFEKFVHIINTD
[7]
  Kd: 18.8 µM
[8]
  Kd: 0.28 µM

Source: article PMC11847324, “A communication hub for phosphoregulation of kinetochore-microtubule attachment” (Current biology : CB, 2024)
